The assay deals with microtubules (MT fraction from mouse brain) (mouse (endogenous in mouse brain)) (UniProt P68369). The experiment in a line: co-sedimentation.

Experimental findings from article PMC6743362 are described below.

Turning to “recombinant human tau lacking the MT-binding domain (tau ΔMTBD) (from UniProt P10636-6 1-383) (natural protein)”, the MT-bound fraction is 0.619 and the MT-unbound fraction turned out to be 0.381.
